# Measured values as given in PMC6426602, “Structure of Vibrio FliL, a New Stomatin-like Protein That Assists the Bacterial Flagellar Motor Function” (mBio, 2019).
# B1: periplasmic region of polar FliL (FliLPeri) of Vibrio alginolyticus (domain or fragment, UniProt A0A7H8DP68 41-167, looked up)
# chain: GSDEPAQAESSQQAQVKASDAAPIAYVNLPQAFVFNVTGDSRDRLVQIKAQLMVRGAENEELARYHSPLIESSMLSTFASATVDQLRSPTGRVELRDRASEDIKAALNAAVGKPVIEKVLFTDFVIQ
# notes: polar flagellar FliL of Vibrio alginolyticus, periplasmic region, residues 41 to 167; Residues 41-57 are invisible in the map; also called His6-FliL_(Peri); copies: 10
# B2: FliLC, trypsin-resistant core of the periplasmic region of polar FliL (residues 58 to 167) (domain or fragment, Vibrio alginolyticus, UniProt A0A7H8DP68 58-167, looked up)
# chain: ASDAAPIAYVNLPQAFVFNVTGDSRDRLVQIKAQLMVRGAENEELARYHSPLIESSMLSTFASATVDQLRSPTGRVELRDRASEDIKAALNAAVGKPVIEKVLFTDFVIQ
# notes: polar flagellar FliL of Vibrio alginolyticus, fragment of residues 58 to 167 left after trypsin digestion of FliLPeri; also called FliL_(58-167)
# Assays:
# [1] = molecular target: the molecule itself; assay: crystal structure; FliLPeri crystal, space group P4(2)2(1)2, 3.4 Å, 20 molecules in the asymmetric unit; sitting drop at 20°C, protein 70 mg/ml in 20 mM Tris-HCl pH 8.0, 150 mM NaCl; reservoir 0.1 M sodium acetate pH 6.0, 25% PEG 200, 0.15 M CaCl2, 1.4% EtOH
# [2] = molecular target: the molecule itself; assay: crystal structure; FliLC crystal, space group P6(1), 2.1 Å, two molecules in the asymmetric unit; sitting drop at 20°C, protein 10 mg/ml in 20 mM Tris-HCl pH 8.0, 150 mM NaCl; reservoir 0.1 M sodium acetate pH 4.4, 22.5% PEG 4000, 0.2 M ammonium sulfate
Protein,stoichiometry N [1] [subunits in a ring],binding result [2]
B1,10,
B2,,binds
